In the RNAGym collection of RNA variant scans (doi:10.1021/acssynbio.7b00057):

B1: Pistol ribozyme (parent)
chain: GGGUCGUUGUUCCAUAAUCGCGUGGAUAUGGCACGCAAGUUUCUACCGGGCACCGUAAAUGUCCGACUGGAGCCGUUCGGGCGGCUAUAAACAGACCUCAGGCCCGAAGCGUGGCGGCACCUGCCGCCGGUGGUAAAAAAGAUCGGAAGAGCACACGUCU

Variants of: B1
Assay: aptazyme ON/OFF ratio, guanine; higher = stronger switching; co-transcriptional cleavage with and without guanine

Point of comparison: U7C U8C G9A U10G U11A C12U C13G, “aptazyme ON/OFF ratio” value 1.19. Against it:
- U7C U8C G9A U10A U11G C12U C13G — higher, 1.21
- U7C U8C G9A U10A U11G C12U C13U — lower, 1.16
- U7C U8C G9A U10A U11G C12U C13A — lower, 1.13
- U7C U8C G9C U10C C12A C13A — lower, 1.06
- U7C U8C G9C U10C C12A C13U — lower, 1.1
- U7C U8C G9C U10C C12A C13G — lower, 1.07
- U7C U8C G9A U10G U11G C13U — higher, 1.29
- U7C U8C G9A U10G U11G C13G — higher, 1.23
- U7C U8C G9A U10G U11G C13A — lower, 1.18
- U7C U8C G9A U10G U11G — higher, 1.59
- U7C U8C G9A U10G U11C — higher, 1.22
- U7C U8C G9A U10G U11A — lower, 1.16
- U7C U8C G9A U10G U11A C12U — lower, 1.11
- U7C U8C G9A U10G U11A C12A — higher, 1.37
- U7C U8C G9A U10G U11A C12G — lower, 1.17
- U7C U8C G9C U10A U11A C13A — lower, 1.13
- U7C U8C G9C U10A U11A C13U — lower, 1.15
- U7C U8C G9C U10A U11A C13G — lower, 1.14
- U7C U8C G9A U10G C12U C13A — lower, 1.15
- U7C U8C G9A U10G C12U C13U — higher, 1.42
- U7C U8C G9A U10G C12U C13G — lower, 1.16
- U7C U8C G9A U10C U11C C12A C13G — lower, 1.17
- U7C U8C G9A U10C U11C C12A C13U — higher, 1.31
- U7C U8C G9A U10C U11C C12A C13A — higher, 1.39
- U7C U8C G9C C12G — lower, 1.18
- U7C U8C G9C C12U — lower, 1.17
- U7C U8C G9C C12A — higher, 1.26
- U7C U8C G9A U10C U11A C13A — higher, 1.41
- U7C U8C G9A U10C U11A C13G — lower, 1.04
- U7C U8C G9A U10C U11A C13U — higher, 1.45
- U7C U8C G9A U10G U11C C12U — higher, 1.43
- U7C U8C G9A U10G U11C C12A — higher, 1.54
- U7C U8C G9A U10G U11C C12G — lower, 1.12
- U7C U8C G9A U11C C12U — higher, 1.66
- U7C U8C G9A U11C C12G — lower, 1.17
- U7C U8C G9A U11C C12A — higher, 1.51
- U7C U8C G9A U10G U11A C12U C13U — higher, 1.23
- U7C U8C G9A U10G U11A C12U C13A — the same, 1.19
- U7C U8C G9A U10G C12G C13U — lower, 1.16
- U7C U8C G9A U10G C12G C13A — higher, 1.2
- U7C U8C G9A U10G C12G C13G — lower, 1.16
- U7C U8C G9C C12A C13A — lower, 1.08
- U7C U8C G9C C12A C13G — lower, 1.06
- U7C U8C G9C C12A C13U — lower, 1.13
- U7C U8C G9C U10A U11G C12A C13G — lower, 1.12
- U7C U8C G9C U10A U11G C12A C13U — lower, 1.14
- U7C U8C G9C U10A U11G C12A C13A — lower, 1.07
- U7C U8C G9C U10C U11A C13U — lower, 1.05
- U7C U8C G9C U10C U11A C13A — lower, 1.14
- U7C U8C G9C U10C U11A C13G — lower, 1.13
- U7C U8C G9C U10A U11G C12U C13A — lower, 1.15
- U7C U8C G9C U10A U11G C12U C13U — lower, 1.1
- U7C U8C G9C U10A U11G C12U C13G — lower, 1.08
- U7C U8C G9C U10C U11C — lower, 1.14
- U7C U8C G9C U10C U11A — higher, 1.4
- U7C U8C G9C U10A U11C C12A C13G — lower, 1.09
- U7C U8C G9C U10A U11C C12A C13A — lower, 1.09
- U7C U8C G9C U10A U11C C12A C13U — lower, 1.13
- U7C U8C G9A U11A C12U — lower, 1.06
- U7C U8C G9A U11A C12A — higher, 1.21
- U7C U8C G9A U11A C12G — higher, 1.21
- U7C U8C G9A U11C C12A C13U — higher, 1.38
- U7C U8C G9A U11C C12A C13G — the same, 1.19
- U7C U8C G9A U11C C12A C13A — higher, 1.29
- U7C U8C G9C U10C C12G C13U — lower, 1.04
- U7C U8C G9C U10C C12G C13G — lower, 1.04
- U7C U8C G9C U10C C12G C13A — lower, 1.16
- U7C U8C G9C U10C C12U C13U — lower, 1.09
- U7C U8C G9C U10C C12U C13G — lower, 1.14
- U7C U8C G9C U10C C12U C13A — lower, 1.1
- U7C U8C G9A U10G U11C C12G C13G — higher, 1.26
- U7C U8C G9A U10G U11C C12G C13U — the same, 1.19
- U7C U8C G9A U10G U11C C12G C13A — lower, 1.17
- U7C U8C G9A U10G U11A C12G C13A — the same, 1.19
- U7C U8C G9A U10G U11A C12G C13G — higher, 1.2
- U7C U8C G9A U10G U11A C12G C13U — lower, 1.11
- U7C U8C G9A U11G C12U C13G — lower, 1.15
- U7C U8C G9A U11G C12U C13U — higher, 1.35
- U7C U8C G9A U11G C12U C13A — higher, 1.22
- U7C U8C G9C U10A U11C C12U C13G — lower, 1.13
- U7C U8C G9C U10A U11C C12U C13U — lower, 1.17
- U7C U8C G9C U10A U11C C12U C13A — lower, 1.13
